Laboratory results taken from patent EP1117419B1 (The University Of Southern California, dated 2010).

Experiments:
[1] = biological target: human platelet membrane glycoprotein (GP)IIb/IIIa on human platelets (platelet rich plasma) (human, UniProt P08514 32-1039; P05106 27-788)
[2] = biological target: canine platelet (GP)IIb/IIIa on canine platelets (platelet rich plasma) (canine, UniProt Q9TUN8 32-1036; A0A8I3PMU9 158-919)
[3] = biological target: binding sites on unactivated human platelets; test: Scatchard analysis of CN binding to unactivated human platelets

B1: contortrostatin (CN), native homodimer purified from Agkistrodon contortrix contortrix venom (ligand)
chain: DAPANPCCDAATCKLTTGSQCADGLCCDQCKFMKEGTVCRRARGDDLDDYCNGISAGCPRNPFHA
- IC50 [1]: 0.4 µg/mL
- IC50 [2]: 0.24 µg/mL
- Kd [3]: 37 nM
